Blank lines part the entries; values can stand above or below the binder they belong to.
Tests used:
[1] = biological target: T1, dog dystroglycan (DG) (MDCK cells) (dog, UniProt Q9TSZ6 28-892); assay: not described; MDCK cells
T1 construct: whole, on cells; also called dog DG
T1 sequence (looked up): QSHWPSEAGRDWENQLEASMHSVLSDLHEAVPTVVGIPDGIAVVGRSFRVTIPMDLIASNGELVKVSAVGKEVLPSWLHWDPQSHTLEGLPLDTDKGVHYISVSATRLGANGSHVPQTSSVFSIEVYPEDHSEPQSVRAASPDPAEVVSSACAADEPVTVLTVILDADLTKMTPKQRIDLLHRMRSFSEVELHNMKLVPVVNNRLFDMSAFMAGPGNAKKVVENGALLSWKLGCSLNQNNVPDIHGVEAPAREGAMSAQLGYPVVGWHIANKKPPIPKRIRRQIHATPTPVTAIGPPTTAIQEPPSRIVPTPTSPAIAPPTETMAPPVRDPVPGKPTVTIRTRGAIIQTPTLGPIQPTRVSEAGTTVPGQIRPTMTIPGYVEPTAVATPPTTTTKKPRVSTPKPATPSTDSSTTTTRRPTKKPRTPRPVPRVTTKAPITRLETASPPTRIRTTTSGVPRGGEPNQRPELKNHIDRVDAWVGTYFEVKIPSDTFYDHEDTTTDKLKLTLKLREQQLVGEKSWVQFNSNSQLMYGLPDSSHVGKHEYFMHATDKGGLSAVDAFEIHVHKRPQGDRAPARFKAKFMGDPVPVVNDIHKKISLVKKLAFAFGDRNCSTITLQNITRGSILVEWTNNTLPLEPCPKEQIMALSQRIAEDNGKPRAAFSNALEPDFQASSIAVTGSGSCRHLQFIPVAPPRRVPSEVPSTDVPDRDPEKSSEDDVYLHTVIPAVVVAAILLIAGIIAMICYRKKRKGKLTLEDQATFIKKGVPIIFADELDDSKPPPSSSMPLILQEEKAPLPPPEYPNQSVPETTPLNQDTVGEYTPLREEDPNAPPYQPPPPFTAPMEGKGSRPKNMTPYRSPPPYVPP

[2] = biological target: T2, human dystroglycan (DG) heterodimer of α-DG and β-DG (human, UniProt Q14118 30-653; Q14118 654-895, variable O- and N-glycosylation of α-DG (sites listed in paragraph 55)); assay: live-cell immunofluorescence on UMUC3, UMUC5, UMUC9 and UMUC10
T2 construct: In the immunoprecipitations it came from lysates of surface-biotinylated cells; also called DAG1; Dystrophin-Associated Glycoprotein 1
T2 sequence 1: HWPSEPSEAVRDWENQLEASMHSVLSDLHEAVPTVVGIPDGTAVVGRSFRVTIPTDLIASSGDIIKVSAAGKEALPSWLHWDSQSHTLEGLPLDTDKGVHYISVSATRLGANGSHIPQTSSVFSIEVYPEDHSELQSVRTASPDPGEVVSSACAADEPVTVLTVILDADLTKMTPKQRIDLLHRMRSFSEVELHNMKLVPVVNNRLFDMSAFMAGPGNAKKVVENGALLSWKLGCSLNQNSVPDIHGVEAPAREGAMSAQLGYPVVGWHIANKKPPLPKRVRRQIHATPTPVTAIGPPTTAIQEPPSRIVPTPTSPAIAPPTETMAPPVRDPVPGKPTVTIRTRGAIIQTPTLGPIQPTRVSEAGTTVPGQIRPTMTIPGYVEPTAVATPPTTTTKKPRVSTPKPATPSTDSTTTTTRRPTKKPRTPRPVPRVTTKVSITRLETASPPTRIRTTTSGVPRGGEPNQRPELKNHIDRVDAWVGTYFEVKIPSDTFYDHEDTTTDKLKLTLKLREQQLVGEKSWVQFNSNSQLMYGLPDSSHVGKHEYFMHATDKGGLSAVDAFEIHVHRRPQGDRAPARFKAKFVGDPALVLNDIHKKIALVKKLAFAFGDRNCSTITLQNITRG
T2 sequence 2: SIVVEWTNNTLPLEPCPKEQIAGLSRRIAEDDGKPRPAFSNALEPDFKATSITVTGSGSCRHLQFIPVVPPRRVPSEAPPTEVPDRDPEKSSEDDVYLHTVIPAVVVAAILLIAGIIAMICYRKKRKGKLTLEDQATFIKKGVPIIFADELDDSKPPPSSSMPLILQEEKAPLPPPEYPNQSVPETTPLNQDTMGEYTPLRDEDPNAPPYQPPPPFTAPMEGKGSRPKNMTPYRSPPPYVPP

[3] = biological target: T2, human dystroglycan (DG) heterodimer of …; assay: live-cell immunofluorescence on co-cultured MEpG cells with and without human DG (FIG. 3)
Experimental: Example 2. Screening for antibodies of interest by live cell binding and internalization. Antibody activity was measured as binding to the surface of living cells expressing the human DG protein (“positive” cells) but not to negative controls (cells derived from an engineered conditional DG knockout mouse lacking human DG expression). The positive population was the same cell line used for immunization, MEpG cells expressing the human DG protein. The negative population was the murine MEpG line expressing green fluorescent protein (GFP) and not the human DG protein, created as previously described in Oppizzi et al., Traffic, 9(12): 2063-2072, 2008. The positive and negative populations were co-cultured in wells of Ibidi 96-well micro-plates (Ibidi, catalog #89626) and distinguishable by GFP expression. Hybridoma supernatants to be tested were diluted 1:1 with plain DMEM:F12 cell culture medium (Gibco) and added to cell-containing wells of the 96-well Ibidi plates. Each well was incubated for 60 minutes at 37° C. with the hybridoma supernatants to be tested, washed with DMEM:F12 medium, and incubated 30 minutes at 37° C. with an anti-mouse secondary antibody conjugated to the Alexa-568 fluorescent dye (Jackson Immunochemicals) diluted 1:1000 in DMEM:F12 medium. […]

binding result [1]: no binding | binding result [2]: binds
B1: monoclonal antibody from hybridoma DG4H4 (ATCC Patent Deposit No. PTA-126594) (antibody, V domains shown)
VH: QVTLKESGPGILKPSQTLSLTCSFSGFSLSTSGMGVGWIRQPSGKGLEWLAHIWWDDDKYYNPSLKSQLTISKDTSRNQVFLKITSVDTADTATYYCARRAYYYGSSYPMDYWGQGTSVTVSS
VL: DIVLTQSPTSLAVSLGQRATFSCKASQSVDYDGDSYMNWYQQKPGQPPKLLIYAASNLDSGIPARFSGSGSGTDFTLNIHPVEEEDAATYYCQQSNEDPLTFGAGTKLELKR
notes: Mouse monoclonal antibody (Balb/c hybridoma); also called lane F

binding result [3]: binds | binding result [1]: no binding
B2: monoclonal antibody from hybridoma DG1A11 (ATCC Patent Deposit No. PTA-126595) (antibody, V domains shown)
VH: DVQLQESGPGLVKPSQSLSLTCTVTDYAITSDYAWNWIRQFPGNKLEWMGYISYSGSTSYSSSLKSRISITRDTSKNQFFLQLNSVTPEDTATYYCARAAPFTTLTDFFDYWGQGTTLTVSS
VL: DIVMTQSHKFMSTSVGDRVTITCKASQDVTTAVAWYQQKPGQSPKLLIYWASSRHTGVPDRFTGSGSGTDYTLTISSVQAEDLALYYCQQHYSTPYTFGGGTKLEIKR
notes: Mouse monoclonal antibody (Balb/c hybridoma); Tested as hybridoma supernatant or purified antibody; also called Antibody A; lane A

From patent US20230140976A1 (OREGON HEALTH AND SCIENCE UNIVERSITY, published 2023)
